The values below come from patent US20110165175A1 (AFFIMED THERAPEUTICS, published 2011).

Where “and” joins values, the source holds several entries; their conditions need not be identical. Equal entries are not always repeated.

For test [1], the target named is platelet integrin receptor GPIIb/IIIa (alpha IIb/beta 3), activated state, on ADP-activated human platelets (human) (UniProt P08514). As to the kind of experiment: flow cytometry, inhibition of fibrinogen binding to ADP-activated platelets in whole blood.
For test [2] the target is unchanged. As to the kind of experiment: flow cytometry, ADP-activated platelets in diluted human whole blood, scFv at 0.1 µg/mL, background of secondary reagent subtracted.
For test [3] the target is unchanged. As to the kind of experiment: flow cytometry, ratio against non-activated platelets at the same scFv concentration (FIG. 23 B).
Test [4] shares this target. Nature of the test: flow cytometry, ADP-activated platelets in diluted human whole blood, scFv at 3.9×10^-2 µg/mL, background of secondary reagent subtracted.
Test [5] has as its target platelet integrin receptor GPIIb/IIIa (alpha IIb/beta 3), non-activated state, on non-activated human platelets (human) (UniProt P08514). Nature of the test: flow cytometry, non-activated platelets in diluted human whole blood, scFv at 9.8×10^-3 µg/mL, background of secondary reagent subtracted.
Test [6] shares this target. As to the kind of experiment: flow cytometry, non-activated platelets in diluted human whole blood, scFv at 3.9×10^-2 µg/mL, background of secondary reagent subtracted.
Test [7] has as its target platelet integrin receptor GPIIb/IIIa (alpha IIb/beta 3), activated state, on ADP-activated human platelets (human) (UniProt P08514). Nature of the test: flow cytometry, inhibition of fibrinogen binding to ADP-activated platelets in whole blood, 4-parameter logistic fit.
Test [8] concerns the target platelet integrin receptor GPIIb/IIIa (alpha IIb/beta 3), non-activated state, on non-activated human platelets (human) (UniProt P08514). As to the kind of experiment: flow cytometry, non-activated platelets in diluted human whole blood, scFv at 4.9×10^-3 µg/mL, background of secondary reagent subtracted.
The target in test [9] is platelet integrin receptor GPIIb/IIIa (alpha IIb/beta 3), activated state, on ADP-activated human platelets (human) (UniProt P08514). As to the kind of experiment: flow cytometry, ADP-activated platelets in diluted human whole blood, scFv at 2.0×10^-3 µg/mL as printed, background of secondary reagent subtracted.
Test [10] has the same target. Nature of the test: flow cytometry, ADP-activated platelets in diluted human whole blood, scFv at 4.9×10^-3 µg/mL, background of secondary reagent subtracted.
Test [11] deals with platelet integrin receptor GPIIb/IIIa (alpha IIb/beta 3), non-activated state, on non-activated human platelets (human) (UniProt P08514). Nature of the test: flow cytometry, non-activated platelets in diluted human whole blood, scFv at 2.0×10^-3 µg/mL as printed, background of secondary reagent subtracted.
For test [12] the target is unchanged. Nature of the test: flow cytometry, non-activated platelets in diluted human whole blood, scFv at 0.1 µg/mL, background of secondary reagent subtracted.
The target in test [13] is platelet integrin receptor GPIIb/IIIa (alpha IIb/beta 3), activated state, on ADP-activated human platelets (human) (UniProt P08514). As to the kind of experiment: flow cytometry, ADP-activated platelets in diluted human whole blood, scFv at 9.8×10^-3 µg/mL, background of secondary reagent subtracted.
Test [14] deals with T1, platelet integrin receptor GPIIb/IIIa (alpha IIb/beta 3), activated state, on ADP-activated human platelets (human, UniProt P08514 32-1039; P05106 27-788).
T1 construct: whole, on cells; The assays were on whole platelets
Nature of the test: FACS, inhibition of fibrinogen binding to activated human platelets.

B1: ReoPro (abciximab, Centocor/Eli Lily) (Fab, INN chains, looked up, V domains shown)
VH: EVQLQQSGTVLARPGASVKMSCEASGYTFTNYWMHWVKQRPGQGLEWIGAIYPGNSDTSYIQKFKGKAKLTAVTSTTSVYMELSSLTNEDSAVYYCTLYDGYYVFAYWGQGTLVTVSA
VL: EIVLTQSPVTLSVTPGDSVSLSCRASRDISNNLHWFQQTSHESPRLLIKYASQSMSGIPSRFSGSGSGTDFTLSINSVETEDFGMYFCQQTNSWPYTFGGGTKLEIK
modifications: Fab
In [1], B1 returned an EC50 of 0.16 µg/mL.

B2: human anti-gpIIb/IIIa single chain antibody (scFv) SCE5 (scFv, V domains shown, not shown: small tags and cut ends)
VH: QVQLQESGGGLVQPGGSLRLSCAASGFMFSRYAMSWVRQAPGKGPEWVSGISGSGGSTYYADSVKGRFTVSRDNSKNTLYLQMNSLRAEDTAVYYCARGATYTSRSDVPDQTSFDYWGQGTLVTVSS
VL: SSELTQDPAVSVALGQTVRITCQGDSLRNFYASWYQQKPGQAPTLVIYGLSKRPSGIPDRFSASSSGNTASLTITGAQAEDEADYYCLLYYGGGQQGVFGGGTKLTVL
modifications: linker and His tag
For B2, the fluorescence signal value came to 4.15 in test [2]; 2.84 in test [4]; 0.015 in test [5]; 0.05 in test [6]; 0.013 in [8]; 1.33 in [9]. Moreover, the fluorescence signal value worked out at 0.265 in test [10], 0.027 in test [11], 0.16 in test [12] and 0.612 in test [13]. Besides, the fluorescence on activated platelets divided by fluorescence on non-activated platelets in test [3] came out at 10 times. In [7], this molecule gave a concentration for a half-maximal effect (EC50) of 0.94 µg/mL. Also, in test [1], the concentration at which the inhibitory effect starts lay within 0.1 to 0.2 µg/mL. This molecule also came in with a concentration of maximal inhibitory effect in test [1] of 10 µg/mL.

B3: MB9 scFv (scFv)
scFv: MAEVQLVQSGAEVNKPGASVKVSCKASGYTFTGYYMHWVRQAPGQGLEWMGWINPNSGGTNYAQKFQGWVTMTRDTSISTAYMELSRLRSDDTAVYYCARGRALYNRNDRSPNWFDPWGQGTLVTVSSGSASAPTLKLEEGEFSEARVQAVLTQPPSVSVAPGQTARITCGGNNIGSKSVQWYQQKPGQAPVLVVYDDSDRPSGIPERFSGSNSGNMATLTISRVEAGDEADYYCQVWDSSSDHVVFGGGTKLTVLGQPKAAPSVTLFPPSAAAGSHHHHHH
notes: Human scFv from the natural IgM phage library, 31 kDa, detected through a His tag; also called clone MB9; MA2
Turning to B3, the IC50 in test [14] was 1.1 µg/mL and 35 nM.
